According to patent US20250250608A1, “METHODS AND COMPOSITIONS FOR ASSAYING BETA-HEXOSAMINIDASE ENZYMATIC ACTIVITY VIA MASS SPECTROMETRY” (GelbChem, LLC, priority 2024, published 2025):

Substrate: CC(=O)NC1C(Oc2ccc(NC(=O)CCN(CCCCNC(=O)c3ccccc3)C(=O)OC(C)(C)C)cc2)OC(COS(=O)(=O)O)C(O)C1O
Assay: Enzyme kinetics of HexA with the HexA substrate, endogenous enzyme from healthy adult dried blood spots, LC-MS/MS detection
Assay type: biochemical
Conditions: other: endogenous enzyme from healthy adult dried blood spots
Description: 3.2 mm punches were taken from dried blood samples. The punches were added into a well of a multiwell plate and in particular, a 1.0 mL deep-well 96-well plate. Following, 30 μL of the duplex assay cocktail described above was added to each well. The plate was sealed with a silicone sealing mat and shaken at 250 rpm for 4 hours at 37° C. in an orbital shaker incubator. After incubation, the enzymatic reaction was quenched by adding 100 μL of methanol: ethyl acetate (1:1) and mixed by pipetting up and down ˜10 times. Analytes were extracted by adding sodium chloride solution (0.5 M, 200 μL) and ethyl acetate (400 μL) to each well and mixed by pipetting up and down ˜10 times. […]
Analytes were detected via a WATERS™ Xevo TQ triple-quadrupole mass spectrometer. […] The following MRM traces were monitored for quantitation: HexA enzymatic reaction product (456.5>356.1), HexA/B enzymatic reaction product (461.5>361.2), and internal standard (465.5>357.1). […]
Enzyme kinetics of HexA and HexA/B were measured in relationship to the HexA substrate and HexA/B substrate, respectively, using endogenous enzymes from healthy adult dried blood spots. […]
The reaction rate for each substrate at different substrate concentrations was measured and the relationship found to be hyperbolic.

B1: HexA (Homo sapiens) (protein)
chain: TLEKNVLVVSVVTPGCNQLPTLESVENYTLTINDDQCLLLSETVWGALRGLETFSQLVWKSAEGTFFINKTEIEDFPRFPHRGLLLDTSRHYLPLSSILDTLDVMAYNKLNVFHWHLVDDPSFPYESFTFPELMRKGSYNPVTHIYTAQDVKEVIEYARLRGIRVLAEFDTPGHTLSWGPGIPGLLTPCYSGSEPSGTFGPVNPSLNNTYEFMSTFFLEVSSVFPDFYLHLGGDEVDFTCWKSNPEIQDFMRKKGFGEDFKQLESFYIQTLLDIVSSYGKGYVVWQEVFDNKVKIQPDTIIQVWREDIPVNYMKELELVTKAGFRALLSAPWYLNRISYGPDWKDFYIVEPLAFEGTPEQKALVIGGEACMWGEYVDNTNLVPRLWPRAGAVAERLWSNKLTSDLTFAYERLSHFRCELLRRGVQAQPLNVGFCEQEFEQT
notes: using endogenous enzymes from healthy adult dried blood spots; from tissue; host or cells: dried blood spots from healthy adults/individuals (3.2 mm punches)
Question: B1 was tested. Which Km did it give?
Answer: Its Km is 4,051 μM.
